Patent US20230250184A1

Target: human CD22 on cells (Daudi, Raji, Nalm.6, K562-CD22) (human) (UniProt P20273)
Test: flow cytometry on K562.huCD22.Luc cells against parental K562 cells, 4 C 30 min

Sequence of UniProt P20273 (P20273 20-847): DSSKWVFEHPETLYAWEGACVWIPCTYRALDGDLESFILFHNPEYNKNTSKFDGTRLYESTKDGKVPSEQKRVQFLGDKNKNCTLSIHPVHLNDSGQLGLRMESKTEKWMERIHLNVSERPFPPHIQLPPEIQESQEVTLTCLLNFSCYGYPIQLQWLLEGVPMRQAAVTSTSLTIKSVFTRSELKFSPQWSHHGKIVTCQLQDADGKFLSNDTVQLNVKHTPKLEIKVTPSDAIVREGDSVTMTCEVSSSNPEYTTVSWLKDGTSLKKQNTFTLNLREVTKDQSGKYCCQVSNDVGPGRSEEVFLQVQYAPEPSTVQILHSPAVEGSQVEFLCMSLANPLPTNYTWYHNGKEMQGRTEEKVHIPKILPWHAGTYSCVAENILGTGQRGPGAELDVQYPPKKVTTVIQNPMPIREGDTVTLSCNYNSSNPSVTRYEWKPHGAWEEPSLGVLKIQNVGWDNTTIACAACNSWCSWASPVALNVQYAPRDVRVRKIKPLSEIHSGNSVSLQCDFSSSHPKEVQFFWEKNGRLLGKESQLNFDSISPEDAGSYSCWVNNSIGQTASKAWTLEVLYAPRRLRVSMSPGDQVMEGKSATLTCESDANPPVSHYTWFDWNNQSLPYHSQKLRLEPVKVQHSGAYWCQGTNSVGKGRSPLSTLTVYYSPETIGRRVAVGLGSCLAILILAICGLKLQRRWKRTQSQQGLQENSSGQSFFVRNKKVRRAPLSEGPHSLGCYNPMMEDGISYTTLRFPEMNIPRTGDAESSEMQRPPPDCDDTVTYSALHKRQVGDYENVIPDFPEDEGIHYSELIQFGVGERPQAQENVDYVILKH

## PE conjugated anti-human CD22 antibody (Miltenyi Biotec, Cat. No. 130-105-086)
  MFI fold over K562 cells (negative control): 642 fold
